Data published in patent US20100249038A1, “ANTAGONISTS OF THE RECEPTOR FOR ADVANCED GLYCATION END-PRODUCTS (RAGE)” (Board of Regents, University of Texas System, priority 2007, published 2010).
Non-standard residues stand in square brackets, D forms with d.

Columns and labels:
[1] = test system: S100P induced NFκB activity in pancreatic cancer MPanc-96 cells; assay: S100P induced NFκB-Luc reporter activity in MPanc-96 cells; assay type: cell-based; conditions: pre-treatment with peptide, FIG. 11
Description: MPanc-96 pancreatic cancer cells were stably transfected with a reporter plasmid, NFκB-Luc reporter, that provides a quantifiable photon output based on NFκB transcriptional activity. Extracellular addition of S100P to the cells induced the NFκB activity, which has previously been proven to be mediated through interaction with RAGE. Pre-treatment of the cells with S100P peptide antagonists (L-peptide and D-peptide), block S100P binding with its receptor RAGE, thus blocking S100P induced NFκB activity. Results of this assay are depicted in FIG. 11.

[2] = molecular target: T1, RAGE (sRAGE, extracellular domain) (Homo sapiens, UniProt Q15109); assay: ELISA of S100P binding to coated sRAGE; conditions: FIG. 10
T1 construct: the extracellular domain of RAGE peptide (sRAGE) was coated onto the ELISA plate

[3] = molecular target: T1, RAGE (sRAGE, extracellular domain); assay: ELISA of S100A4 binding to coated sRAGE; conditions: FIG. 10
[4] = test system: NFκB activity in subcutaneous MPanc-96 tumors; assay: NFκB-Luc activity in subcutaneous MPanc-96 tumors after intratumoral injection; assay type: in vivo, nude mice; conditions: 10 mg/kg b.wt intratumorally, measured after 4 hours; FIG. 12
Procedure: S100P peptide antagonists (L-peptide and D-peptide) block NFκB activity in vivo in subcutaneous tumors. MPanc-96 pancreatic cancer cells stably transfected with the NFκB-Luc reporter were injected into nude mice subcutaneously (1×10^6) and in vivo NFκB activity indicated by luciferase was measured using an IVIS-100 bioluminescence system. S100P peptide antagonists (L-peptide and D-peptide) (10 mg/kg·b·wt) were injected intratumorally and NFκB activity was measured after 4 hours. […] Thus, delivery of peptide antagonists by direct injection in subcutaneous tumors inhibits NFκB as an indirect read-out of RAGE.

[5] = test system: NFκB activity in orthotopic MPanc-96 tumor; assay: NFκB-Luc activity in orthotopic MPanc-96 tumors after intraperitoneal injection; assay type: in vivo; conditions: 10 mg/kg b.wt intraperitoneally, measured after 4 hrs; p<0.05; FIG. 13
Procedure: MPanc-96 pancreatic cancer cells stably transfected with the NFκB-Luc reporter were injected orthotopically into the pancreas (1×10^6), and NFκB activity indicated by luciferase activity was measured after two weeks. S100P peptide antagonists (L-peptide and D-peptide) (10 mg/kg·b·wt) were injected intraperitoneally and NFκB activity in the orthotopic tumor was measured after 4 hrs.

[6] = molecular target: T1, RAGE (sRAGE, extracellular domain); assay: ELISA of amphoterin (HMGB1) binding to coated sRAGE; conditions: amphoterin 0-100 ng; FIG. 9; p<0.05 versus HMGB1 alone
Description: S100P peptide antagonists having the sequence Ac-ELKVLMEKEL-NH2 were made with standard L isomers of amino acids. This peptide antagonist comprises the amino acid sequence referred to as SEQ ID NO: 1 (ELKVLMEKEL), and in this instance the termini were blocked to prevent and/or reduce degradation. The inverse sequence, Ac-LEKEMLVKLE-NH2 was produced using D isomers of amino acids. This peptide antagonist comprises the amino acid sequence referred to as SEQ ID NO: 4 (LEKEMLVKLE), and in this instance the termini were blocked to prevent and/or reduce degradation. D isomers of amino acids, which are not naturally occurring, are thought to provide prolonged half-life in vivo. […] For this study, the extracellular domain of RAGE peptide (sRAGE) was coated onto the ELISA plate for 1 hour and non-specific binding sites were blocked with 1% BSA for 15 minutes. Amphoterin (0-100 ng) was added and incubated for 1 hour to allow its binding to its receptor and unbound molecules were removed by washing. Primary antibody against amphoterin and secondary antibody labeled with HRP and subsequently substrate for HRP was used to detect bound amphoterin with its receptor sRAGE. […] A control peptide of the same size had no effect. *=p<0.05 versus HMGB1 alone.
Inhibition of the binding of amphoterin to RAGE by antagonist peptides was tested using an in vitro ELISA based binding assay. […]

[7] = test system: NFκB activity in S100P expressing BxPC3 cell tumors; assay: Basal NFκB luciferase activity in BxPC3 cell tumors in vivo after i.p. peptide; conditions: BxPC3 tumors in scid mice, 24 h after peptide delivery vs time 0, FIG. 8
Procedure: (§1) The effect of these novel peptide antagonists was evaluated on NFκB activity stimulated by S100P in Panc-1 cells. Panc-1 cells stably expressing the NFκB luciferase reporter gene were treated with or without S100P (100 nM) and either peptides of SEQ ID NOs: 1, 2 or 3 (1 μg/ml) for 4 hours. NFκB activity was estimated using luciferase quantitation. Numbers represent means±SE of triplicate determinations. * vs S100P alone (p<0.05); # vs control (p<0.05). Furthermore, administration of peptide of SEQ ID NO: 1 but not SEQ ID NO: 3 inhibited basal NFκB activity in S100P expressing BxPC3 cell tumors when administered in vivo as shown in FIG. 8. BxPC3 cells stably expressing an NFκB luciferase reporter were transplanted to scid mice and tumors were allowed to form. Animals were then injected i.p. with either peptide of SEQ ID NO: 1 (FIG. 8A) or SEQ ID NO: 3 (FIG. 8B). Imaging of luciferase activity was performed before and 24 h after peptide delivery. […] Numbers represent means±SE of triplicate determinations. *=p<0.05 vs time 0.

RAGE [8] = molecular target: T2, RAGE (Homo sapiens, UniProt Q15109); assay: ELISA-type assay of purified S100P binding to coated purified RAGE; set-up: Purified RAGE was coated into culture wells; conditions: peptides 50 μM; FIG. 7A; preliminary studies
Procedure: The binding of purified S100P to RAGE was evaluated using an ELISA technique. Purified RAGE was coated into culture wells, S100P was allowed to bind in the presence and absence of the peptides (50 μM), the dishes were extensively washed, and bound S100P was detected with a specific antibody coupled to HRP.
Target sequence in this assay (Q15109 23-342): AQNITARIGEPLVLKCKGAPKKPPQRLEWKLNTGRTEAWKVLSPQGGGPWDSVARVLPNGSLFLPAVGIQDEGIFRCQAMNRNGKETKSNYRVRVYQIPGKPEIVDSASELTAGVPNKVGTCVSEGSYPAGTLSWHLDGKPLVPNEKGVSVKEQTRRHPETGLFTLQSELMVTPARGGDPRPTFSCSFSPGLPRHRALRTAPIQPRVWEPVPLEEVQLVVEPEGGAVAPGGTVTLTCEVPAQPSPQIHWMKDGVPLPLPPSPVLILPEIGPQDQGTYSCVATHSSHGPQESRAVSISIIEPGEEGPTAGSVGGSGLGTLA

[9] = test system: NFκB activity stimulated by S100P in Panc-1 cells; assay: NFκB luciferase reporter activity stimulated by S100P in Panc-1 cells; assay type: cell-based; conditions: S100P 100 nM, peptide 1 μg/ml, 4 hours, FIG. 7B
Procedure: as §1

RAGE [10] = molecular target: T2, RAGE; assay: Co-immunoprecipitation of RAGE with S100P from pancreatic cancer cell lysates; assay type: binding; set-up: endogenous in cells; host or cells: MiaPaca2, BxPC3 (and Panc-1, printed 'Panel') cell lysates; conditions: S100P 100 ng, 16 hours at 4° C., FIG. 5
Procedure: As a direct indication of this interaction, lysates from Panel, and MiaPaca2 cells were incubated with S100P and S100P was then immunoprecipitated. RAGE was not present in the samples run without addition of S100P or S100P antibody (lanes A-C), but RAGE was present when both these reagents were included (lanes D-F). […] In these experiments MiaPaca2 (A-D) and BxPC3-1 (E) cell lysates were incubated in the presence of S100P (100 ng) for 16 hours at 4° C. before immunoprecipitation with anti-S100P monoclonal antibodies (IP-S100P) (+) or control IgG (−) and RAGE was identified in the immunoprecipitates by western blotting with an anti-RAGE antibody (IB-RAGE).
Target sequence in this assay (Q15109 23-404): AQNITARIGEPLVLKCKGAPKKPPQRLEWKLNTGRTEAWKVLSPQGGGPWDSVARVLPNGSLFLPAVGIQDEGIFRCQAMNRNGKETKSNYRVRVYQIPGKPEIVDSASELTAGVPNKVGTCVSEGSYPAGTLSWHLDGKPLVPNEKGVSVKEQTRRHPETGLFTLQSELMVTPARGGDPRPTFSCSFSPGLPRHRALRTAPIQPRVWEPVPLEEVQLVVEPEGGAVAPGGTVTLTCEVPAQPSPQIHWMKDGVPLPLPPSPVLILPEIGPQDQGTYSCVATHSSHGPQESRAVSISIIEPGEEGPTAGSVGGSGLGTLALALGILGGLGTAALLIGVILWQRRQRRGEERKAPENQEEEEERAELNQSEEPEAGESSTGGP

[11] = test system: human umbilical vein endothelial cells (HUVECs); assay: HUVEC cell number after S100P treatment (MTS); assay type: cell-based; conditions: S100P treatment for 48 hrs vs uninduced bacterial protein; FIG. 4A
Procedure: (§2) S100P is secreted by pancreatic cancer cells and acts in an autocrine manner to stimulate their growth, survival, and invasiveness. Thus, S100P could also interact with receptors on cells within the microenvironment. The effects of S100P on human umbilical vein endothelial cells (HUVECs) in vitro were examined. […] HUVEC cells were cultured in the presence of either S100P or uninduced bacterial protein for 48 hours and the number of cells was estimated using MTS. […] Tumors formed with BxPC3 cells were harvested and frozen sections were stained for CD31 staining with the help of the Cancer Biology Histology core. Microvessels bearing CD31 are stained brown. […] HUVEC cells were plated on Matrigel and followed for 4 hours. After this time, control cells mostly remained individually isolated while a few cells began to migrate and align themselves and occasional sprouting was observed. At 4 hrs, cells treated with S100P had mostly migrated aligned themselves, sprouted, formed closed polygons and a complex mesh like structure had developed.

[12] = test system: human umbilical vein endothelial cells (HUVECs); assay: HUVEC migration and alignment on Matrigel; assay type: cell-based; conditions: 4 hours, FIG. 4C
Procedure: as §2

T1 sequence (Q15109 23-342 limits assumed): as the sequence (Q15109 23-342) above

Molecule: Ac-ELKVLMEKEL-NH2 (listed as Homo sapiens) [L-peptide]
- block of S100P induced NFκB activity [1]: block S100P induced NFκB activity
- block of S100P binding to RAGE [2]: compete for binding of S100P
- block of S100A4 binding to RAGE [3]: blocked
- reduction in NFκB activity in subcutaneous tumors [4]: strong reduction in NFκB activity
- inhibition of cancer cell NFκB activity in orthotopic tumor [5]: significant inhibition of cancer cell NFκB activity
- block of amphoterin (HMGB1) binding to RAGE [6]: competed with amphoterin and blocked its ability to bind with RAGE

Molecule: Ac-LEKEMLVKLE-NH2 (Ac-[dL][dE][dK][dE][dM][dL][dV][dK][dL][dE]-NH2; SMILES CSCC[C@@H](NC(=O)[C@@H](CCC(=O)O)NC(=O)[C@@H](CCCCN)NC(=O)[C@@H](CCC(=O)O)NC(=O)[C@@H](CC(C)C)NC(C)=O)C(=O)N[C@H](CC(C)C)C(=O)N[C@@H](C(=O)N[C@H](CCCCN)C(=O)N[C@H](CC(C)C)C(=O)N[C@H](CCC(=O)O)C(N)=O)C(C)C; listed as Homo sapiens) [D-peptide]
- block of S100P induced NFκB activity [1]: block S100P induced NFκB activity
- block of S100P binding to RAGE [2]: compete for binding of S100P
- block of S100A4 binding to RAGE [3]: blocked
- reduction in NFκB activity in subcutaneous tumors [4]: strong reduction in NFκB activity
- inhibition of cancer cell NFκB activity in orthotopic tumor [5]: significant inhibition of cancer cell NFκB activity
- block of amphoterin (HMGB1) binding to RAGE [6]: competed with amphoterin and blocked its ability to bind with RAGE

Molecule: ELKVLMEKEL (listed as Homo sapiens) [SEQ ID NO: 1]
- inhibition of basal NFκB activity in tumors in vivo [7]: caused a significant reduction in NFκB activity
- block of the interaction of S100P with RAGE (RAGE [8]): could block the interaction of S100P with RAGE
- block of the activation of NFκB by S100P [9]: could also block the activation of NFκB by S100P

Molecule: GKDGDAVDKLLKD (listed as Homo sapiens) [SEQ ID NO: 3, b142 prints …]
- inhibition of basal NFκB activity in tumors in vivo [7]: did not
- block of the interaction of S100P with RAGE (RAGE [8]): could block the interaction of S100P with RAGE
- block of the activation of NFκB by S100P [9]: could also block the activation of NFκB by S100P

Molecule: KELPGFLQSGKDKD (listed as Homo sapiens) [SEQ ID NO: 2]
- block of the interaction of S100P with RAGE (RAGE [8]): not
- block of the activation of NFκB by S100P [9]: not

B1: S100P: S100 family calcium-binding protein, RAGE ligand, added exogenously as purified protein (protein, UniProt P25815 1-95, looked up)
Protein S100-P: MTELETAMGMIIDVFSRYSGSEGSTQTLTKGELKVLMEKELPGFLQSGKDKDAVDKLLKDLDANGDAQVDFSEFIVFVAAITSACHKYFEKAGLK
- direct interaction with RAGE (RAGE in S100P immunoprecipitates) (RAGE [10]): able to interact directly with RAGE
- HUVEC cell numbers [11]: significant increase in HUVEC cell numbers
- endothelial cell migration and alignment [12]: increased endothelial cell migration and alignment
